The values below come from patent publication US20160362464A1.

For test [1], the target named is CFP-Gβ1 with untagged Gγ2. The test is described as follows: FRET at the plasma membrane of control HeLa cells, before Wnt5a stimulation (FIG. 2J, L).
Test [2] deals with CFP-Gβ1 with untagged Gγ2. In words: FRET at the plasma membrane of control HeLa cells, within 5 min after Wnt5a stimulation (FIG. 2J, L).
Test [3] deals with FZD7-CFP. The test is described as follows: FRET at the plasma membrane of starved HEK293 cells; printed: No such interaction was observed in starved cells (FIG. 4H, I).
For test [4], the target named is FZD7-CFP. In words: FRET at the plasma membrane of HEK293 cells within 5 min after Wnt5a stimulation (FIG. 4H, I).

CFP-Gβ1 with untagged Gγ2, sequence (P62873 2-340, chain 1 of 2): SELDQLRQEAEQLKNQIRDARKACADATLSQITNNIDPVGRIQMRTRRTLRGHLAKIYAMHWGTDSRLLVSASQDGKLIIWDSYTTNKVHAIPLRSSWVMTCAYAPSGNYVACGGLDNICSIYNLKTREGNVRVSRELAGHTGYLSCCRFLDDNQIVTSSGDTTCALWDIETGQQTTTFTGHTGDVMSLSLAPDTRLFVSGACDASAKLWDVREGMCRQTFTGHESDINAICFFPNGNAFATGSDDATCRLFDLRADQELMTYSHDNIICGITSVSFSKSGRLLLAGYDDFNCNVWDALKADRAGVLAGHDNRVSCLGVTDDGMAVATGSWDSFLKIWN
CFP-Gβ1 with untagged Gγ2, sequence (P59768 2-68, chain 2 of 2, further chain): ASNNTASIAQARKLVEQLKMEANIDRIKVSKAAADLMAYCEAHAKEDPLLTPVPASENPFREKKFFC
Gαi1-YFP (internally tagged), sequence (P10824 2-354): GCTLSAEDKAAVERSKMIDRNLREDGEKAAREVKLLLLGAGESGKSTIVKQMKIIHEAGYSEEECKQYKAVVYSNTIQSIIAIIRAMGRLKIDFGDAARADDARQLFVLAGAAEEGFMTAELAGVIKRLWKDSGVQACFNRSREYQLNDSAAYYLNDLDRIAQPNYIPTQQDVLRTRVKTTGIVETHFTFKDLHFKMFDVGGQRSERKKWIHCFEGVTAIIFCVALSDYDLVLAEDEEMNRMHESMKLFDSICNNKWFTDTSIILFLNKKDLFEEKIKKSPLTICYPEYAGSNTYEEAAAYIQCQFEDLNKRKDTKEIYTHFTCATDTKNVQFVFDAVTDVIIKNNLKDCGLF

With Gαi1-YFP (internally tagged), the FRET efficiency in test [1] came to 0.36; in test [2] it was 0.17.

As for Gαi3-YFP (internally tagged), the FRET efficiency in test [3] was found to be 0.04; in test [4] it was 0.25.
